The values that follow come from publication PMC10110616.

The assay addresses Delta-C70-Ferritin-HexaPro (DCFHP), from Expi293F cells (SARS-CoV-2 (Wuhan-1 isolate) | H. pylori) (UniProt P0DTC2). The experiment in a line: SEC-MALS.

Turning to “Delta-C70-Ferritin-HexaPro (DCFHP), from Expi293F cells (from UniProt P0DTC2 14-1146; Q9ZLI1 5-167)”, the stoichiometry N amounted to 24.

One may read the stoichiometry N as a count of units in the complex or per binding partner.
